Measurements from IntAct's records for PubMed 18303947.

B1: NMDA receptor synaptonuclear signaling and neuronal migration factor (Mus musculus), Q99NF2-1 (parent)
chain: MGAAASRRRALRSEAMSSVAAKVRAARAFGEYLSQSHPENRNGADHLLADAYSGHDGSPEMQPAPQNKRRLSLVSNGRYEGSISDEAVSGKPAIEGPQPHVYTISREPALLPGSEAEAIELAVVKGRRQRERHPHHHSQPLRASPGSSREDISRPCQSWAGSRQGSKECPGCAQLVPGPSSRAFGLEQPPLPEAPGRHKKLERMYSVDGVSDDVPIRTWFPKENLFSFQTATTTMQAISVFRGYAERKRRKRENDSASVIQRNFRKHLRMVGSRRVKAQTFAERRERSFSRSWSDPTPMKADTSHDSRDSSDLQSSHCTLDEACEDLDWDTEKGLEAMACNTEGFLPPKVMLISSKVPKAEYIPTIIRRDDPSIIPILYDHEHATFEDILEEIEKKLNIYHKGAKIWKMLIFCQGGPGHLYLLKNKVATFAKVEKEEDMIHFWKRLSRLMSKVNPEPNVIHIMGCYILGNPNGEKLFQNLRTLMTPYKVTFESPLELSAQGKQMIETYFDFRLYRLWKSRQHSKLLDFDDVL

Variants of: B1
Details: with Cabp1, O88751-1
Cabp1, O88751-1, sequence (O88751 whole entry): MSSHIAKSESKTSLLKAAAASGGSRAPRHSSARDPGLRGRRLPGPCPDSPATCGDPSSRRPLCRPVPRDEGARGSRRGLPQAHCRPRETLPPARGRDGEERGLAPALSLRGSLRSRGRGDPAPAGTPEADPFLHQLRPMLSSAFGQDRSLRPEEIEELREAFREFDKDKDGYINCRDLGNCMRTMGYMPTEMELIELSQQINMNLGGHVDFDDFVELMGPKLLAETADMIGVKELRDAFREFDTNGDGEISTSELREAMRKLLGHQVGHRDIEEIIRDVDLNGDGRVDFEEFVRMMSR

Row | Variant | effect of a mutation on the interaction
1 | F241E | disrupting interaction
